Data taken from patent publication US20160120951A1 (ZEALAND PHARMA A S, published 2016).
Numbered stars: 1 amine (or outer) side, 2 acyl side, 3 side chain; on linkers, the order of the positions; unused ones are H or OH. Square brackets hold non-standard residues; d marks the D form. Side chains are listed from the residue outwards. * marks the point of attachment. γGlu = O=C(O)[C@H](CCC(=O)[*:2])N[*:1]; Palmitoyl = CCCCCCCCCCCCCCCC(=O)*; Aib = CC(C)(N)C(=O)O

Tests used:
Test in all cases: cell-based or functional assay
[1] = target: T1, human glucagon receptor (Glucagon-R) (human, UniProt P47871 26-477)
[2] = target: human glucagon-like peptide 1 receptor (GLP-1R) (human, UniProt P43220 24-463)
Sequence of human glucagon-like peptide 1 receptor (GLP-1R) (P43220 24-463): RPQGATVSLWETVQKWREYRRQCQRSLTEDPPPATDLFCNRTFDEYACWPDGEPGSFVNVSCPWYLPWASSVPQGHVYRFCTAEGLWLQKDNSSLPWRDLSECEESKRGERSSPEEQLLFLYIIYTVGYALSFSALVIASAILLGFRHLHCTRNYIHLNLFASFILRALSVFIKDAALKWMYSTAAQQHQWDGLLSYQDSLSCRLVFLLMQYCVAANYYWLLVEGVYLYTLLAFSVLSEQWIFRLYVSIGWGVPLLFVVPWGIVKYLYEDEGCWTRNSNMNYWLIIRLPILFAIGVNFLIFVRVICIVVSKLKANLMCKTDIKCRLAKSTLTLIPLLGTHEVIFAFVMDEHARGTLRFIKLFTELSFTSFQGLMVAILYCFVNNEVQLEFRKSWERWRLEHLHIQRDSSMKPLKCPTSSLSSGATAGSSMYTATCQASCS

[3] = target: T1, human glucagon receptor (Glucagon-R); remark: listed apart in the source

B1: Compound 11 (peptide)
peptide: H-H[Aib]QGTFTSDYSKYLDSK([γGlu-Palmitoyl])AAHDFVEWLLRA-NH2
SMILES: CCCCCCCCCCCCCCCC(=O)N[C@@H](CCC(=O)NCCCC[C@H](NC(=O)[C@H](CO)NC(=O)[C@H](CC(=O)O)NC(=O)[C@H](CC(C)C)NC(=O)[C@H](Cc1ccc(O)cc1)NC(=O)[C@H](CCCCN)NC(=O)[C@H](CO)NC(=O)[C@H](Cc1ccc(O)cc1)NC(=O)[C@H](CC(=O)O)NC(=O)[C@H](CO)NC(=O)[C@@H](NC(=O)[C@H](Cc1ccccc1)NC(=O)[C@@H](NC(=O)CNC(=O)[C@H](CCC(N)=O)NC(=O)C(C)(C)NC(=O)[C@@H](N)Cc1c[nH]cn1)[C@@H](C)O)[C@@H](C)O)C(=O)N[C@@H](C)C(=O)N[C@@H](C)C(=O)N[C@@H](Cc1c[nH]cn1)C(=O)N[C@@H](CC(=O)O)C(=O)N[C@@H](Cc1ccccc1)C(=O)N[C@H](C(=O)N[C@@H](CCC(=O)O)C(=O)N[C@@H](Cc1c[nH]c2ccccc12)C(=O)N[C@@H](CC(C)C)C(=O)N[C@@H](CC(C)C)C(=O)N[C@@H](CCCNC(=N)N)C(=O)N[C@@H](C)C(N)=O)C(C)C)C(=O)O
[1]
  EC50 (nM) GluR, cAMP formation: 0.16 nM
[2]
  EC50 (nM) GLP-1R, cAMP formation: 0.09 nM
[3]
  GluR EC50 (nM) (1), cAMP formation in primary human hepatocytes: 32.9 nM
  GluR EC50 (nM) (2), cAMP formation in primary human hepatocytes: 25.5 nM
  GluR EC50 (nM) (log avg), cAMP formation in primary human hepatocytes: 28.9 nM
